Data from paper PMC8315899 (Nature structural & molecular biology, 2021).

Target: the molecule itself
Assay: cryo-EM structure

B1: STRN3 (striatin 3), recombinant (natural protein, human, UniProt Q13033-2 1-713, looked up)
chain: MDELAGGGGGGPGMAAPPRQQQGPGGNLGLSPGGNGAAGGGGPPASEGAGPAAGPELSRPQQYTIPGILHYIQHEWARFEMERAHWEVERAELQARIAFLQGERKGQENLKKDLVRRIKMLEYALKQERAKYHKLKYGTELNQGDLKMPTFESEETKDTEAPTAPQNSQLTWKQGRQLLRQYLQEVGYTDTILDVRSQRVRSLLGLSNSEPNGSVETKNLEQILNGGESPKQKGQEIKRSSGDVLETFNFLENADDSDEDEENDMIEGIPEGKDKHRMNKHKIGNEGLAADLTDDPDTEEALKEFDFLVTAEDGEGAGEARSSGDGTEWAEPITFPSGGGKSFIMGSDDVLLSVLGLGDLADLTVTNDADYSYDLPANKDAFRKTWNPKYTLRSHFDGVRALAFHPVEPVLVTASEDHTLKLWNLQKTVPAKKSASLDVEPIYTFRAHIGPVLSLAISSNGEQCFSGGIDATIQWWNMPSPSVDPYDTYEPNVLAGTLVGHTDAVWGLAYSGIKNQLLSCSADGTVRLWNPQEKLPCICTYNGDKKHGIPTSVDFIGCDPAHMVTSFNTGSAVIYDLETSQSLVILSSQVDSGLQSNNHINRVVSHPTLPVTITAHEDRHIKFFDNKTGKMIHSMVAHLDAVTSLAVDPNGIYLMSGSHDCSIRLWNLDSKTCVQEITAHRKKLDESIYDVAFHSSKAYIASAGADALAKVFV
stoichiometry N: 4
